Each block holds one binder with its values, some of them ahead of it.
How the values were obtained:
Assay in all cases: two-hybrid library CCmax;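 also: natural log of median RNA to DNA barcode read ratio; higher means stronger binding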
4H2165-AA = target: T1, 4H2165-AA; settings: mean of both orientations
T1 chain: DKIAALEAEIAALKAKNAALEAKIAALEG

GCN2_T = target: GCN2_T
4H2512-AA = target: T2, 4H2512-AA
T2 chain: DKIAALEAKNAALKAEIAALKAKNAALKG

4H3073-AA = target: T3, 4H3073-AA; settings: mean of both orientations
T3 chain: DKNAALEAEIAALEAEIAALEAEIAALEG

4H2253-AA = target: T4, 4H2253-AA; settings: mean of both orientations
T4 chain: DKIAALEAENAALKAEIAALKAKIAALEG

4H_BCR = target: T5, 4H_BCR; settings: mean of both orientations
T5 chain: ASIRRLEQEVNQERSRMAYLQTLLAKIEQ

4H2592-AA = target: T6, 4H2592-AA; settings: mean of both orientations
T6 chain: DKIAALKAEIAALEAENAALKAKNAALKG

4H452-AA = target: T7, 4H452-AA; settings: mean of both orientations
T7 chain: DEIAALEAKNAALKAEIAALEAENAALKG

4H_GCN4 = target: 4H_GCN4
4H2466-AA = target: T8, 4H2466-AA; settings: mean of both orientations
T8 chain: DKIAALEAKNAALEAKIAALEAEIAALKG

4H2330-AA = target: T9, 4H2330-AA; settings: mean of both orientations
T9 chain: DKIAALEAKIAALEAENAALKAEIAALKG

4H2732-AA = target: T10, 4H2732-AA; settings: mean of both orientations
T10 chain: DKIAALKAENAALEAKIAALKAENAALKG

4H2124-AA = target: T11, 4H2124-AA; settings: mean of both orientations
T11 chain: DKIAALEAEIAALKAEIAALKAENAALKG

4H3015-AA = target: T12, 4H3015-AA; settings: mean of both orientations
T12 chain: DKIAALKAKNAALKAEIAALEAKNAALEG

4H347-AA = target: T13, 4H347-AA; settings: mean of both orientations
T13 chain: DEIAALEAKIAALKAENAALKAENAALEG

4H2343-AA = target: T14, 4H2343-AA; settings: mean of both orientations
T14 chain: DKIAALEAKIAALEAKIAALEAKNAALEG

4H406-AA = target: T15, 4H406-AA; settings: mean of both orientations
T15 chain: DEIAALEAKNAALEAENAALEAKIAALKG

4H56-AA = target: T16, 4H56-AA; settings: mean of both orientations
T16 chain: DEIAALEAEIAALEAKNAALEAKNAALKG

4H3438-AA = target: T17, 4H3438-AA; settings: mean of both orientations
T17 chain: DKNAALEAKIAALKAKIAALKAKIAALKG

4H2931-AA = target: T18, 4H2931-AA; settings: mean of both orientations
T18 chain: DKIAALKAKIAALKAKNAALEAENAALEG

4H1930-AA = target: T19, 4H1930-AA
T19 chain: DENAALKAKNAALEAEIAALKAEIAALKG

4H2774-AA = target: T20, 4H2774-AA; settings: mean of both orientations
T20 chain: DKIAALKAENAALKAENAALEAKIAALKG

4H_APH = target: T21, 4H_APH
T21 chain: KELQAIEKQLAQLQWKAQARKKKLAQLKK

4H3001-AA = target: T22, 4H3001-AA; settings: mean of both orientations
T22 chain: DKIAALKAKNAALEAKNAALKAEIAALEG

4H249-AA = target: T23, 4H249-AA; settings: mean of both orientations
T23 chain: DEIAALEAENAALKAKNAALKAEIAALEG

4H3121-AA = target: T24, 4H3121-AA; settings: mean of both orientations
T24 chain: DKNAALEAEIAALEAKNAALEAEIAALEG

4H189-AA = target: T25, 4H189-AA; settings: mean of both orientations
T25 chain: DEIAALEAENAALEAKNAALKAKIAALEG

4H3709-AA = target: T26, 4H3709-AA; settings: mean of both orientations
T26 chain: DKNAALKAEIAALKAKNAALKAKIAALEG

4H391-AA = target: T27, 4H391-AA; settings: mean of both orientations
T27 chain: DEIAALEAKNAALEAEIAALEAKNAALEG

4H2248-AA = target: T28, 4H2248-AA; settings: mean of both orientations
T28 chain: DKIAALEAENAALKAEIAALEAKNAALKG

4H3417-AA = target: T29, 4H3417-AA; settings: mean of both orientations
T29 chain: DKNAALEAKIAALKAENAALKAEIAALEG

4H3102-AA = target: T30, 4H3102-AA; settings: mean of both orientations
T30 chain: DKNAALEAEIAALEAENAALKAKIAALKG

4H3591-AA = target: T31, 4H3591-AA; settings: mean of both orientations
T31 chain: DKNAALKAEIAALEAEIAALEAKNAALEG

4H3920-AA = target: T32, 4H3920-AA; settings: mean of both orientations
T32 chain: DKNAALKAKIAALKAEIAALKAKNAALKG

4H2742-AA = target: T33, 4H2742-AA
T33 chain: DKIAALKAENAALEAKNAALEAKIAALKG

4H1391-AA = target: T34, 4H1391-AA
T34 chain: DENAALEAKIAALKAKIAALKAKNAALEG

4H3446-AA = target: T35, 4H3446-AA; settings: mean of both orientations
T35 chain: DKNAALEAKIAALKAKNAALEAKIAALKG

4H478-AA = target: T36, 4H478-AA; settings: mean of both orientations
T36 chain: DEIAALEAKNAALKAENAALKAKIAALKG

4H3029-AA = target: T37, 4H3029-AA; settings: mean of both orientations
T37 chain: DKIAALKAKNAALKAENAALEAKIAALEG

4H3939-AA = target: T38, 4H3939-AA; settings: mean of both orientations
T38 chain: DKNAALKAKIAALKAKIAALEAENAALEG

4H971-AA = target: T39, 4H971-AA; settings: mean of both orientations
T39 chain: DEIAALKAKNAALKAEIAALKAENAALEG

4H2713-AA = target: T40, 4H2713-AA; settings: mean of both orientations
T40 chain: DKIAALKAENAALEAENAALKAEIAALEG

4H497-AA = target: T41, 4H497-AA; settings: mean of both orientations
T41 chain: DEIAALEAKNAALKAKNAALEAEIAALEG

4H3066-AA = target: T42, 4H3066-AA; settings: mean of both orientations
T42 chain: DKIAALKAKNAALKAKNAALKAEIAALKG

4H1854-AA = target: T43, 4H1854-AA; settings: mean of both orientations
T43 chain: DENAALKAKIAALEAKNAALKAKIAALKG

4H2991-AA = target: T44, 4H2991-AA; settings: mean of both orientations
T44 chain: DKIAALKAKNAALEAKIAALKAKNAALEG

4H146-AA = target: T45, 4H146-AA; settings: mean of both orientations
T45 chain: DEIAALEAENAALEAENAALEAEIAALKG

4H3666-AA = target: T46, 4H3666-AA; settings: mean of both orientations
T46 chain: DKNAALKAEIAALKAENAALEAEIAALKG

4H1809-AA = target: T47, 4H1809-AA; settings: mean of both orientations
T47 chain: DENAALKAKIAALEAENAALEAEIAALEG

4H675-AA = target: T48, 4H675-AA; settings: mean of both orientations
T48 chain: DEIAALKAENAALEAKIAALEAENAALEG

4H2283-AA = target: T49, 4H2283-AA; settings: mean of both orientations
T49 chain: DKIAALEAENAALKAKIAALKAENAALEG

4H428-AA = target: T50, 4H428-AA; settings: mean of both orientations
T50 chain: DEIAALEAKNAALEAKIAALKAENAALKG

4H656-AA = target: T51, 4H656-AA; settings: mean of both orientations
T51 chain: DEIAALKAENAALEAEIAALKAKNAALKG

4H2948-AA = target: T52, 4H2948-AA; settings: mean of both orientations
T52 chain: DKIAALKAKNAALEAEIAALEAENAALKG

4H3628-AA = target: T53, 4H3628-AA; settings: mean of both orientations
T53 chain: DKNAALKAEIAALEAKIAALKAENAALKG

4H_GCN4, sequence (chain, as listed by the source): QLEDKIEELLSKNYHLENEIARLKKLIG

interaction score (4H2165-AA): -1.35
interaction score (GCN2_T): -1.22
interaction score (4H2512-AA): -3.66
interaction score (4H3073-AA): -0.77
interaction score (4H2253-AA): -1.35
interaction score (4H_BCR): -1.93
interaction score (4H2592-AA): -1.46
interaction score (4H452-AA): -1.51
interaction score (4H_GCN4): -1.23
interaction score (4H2466-AA): -1.3
interaction score (4H2330-AA): -1.7
interaction score (4H2732-AA): -1.87
interaction score (4H2124-AA): -1.14
interaction score (4H3015-AA): -1.72
interaction score (4H347-AA): -1.32
interaction score (4H2343-AA): -1.34
interaction score (4H406-AA): -1.92
interaction score (4H56-AA): -2.31
interaction score (4H3438-AA): -1.3
interaction score (4H2931-AA): -1.91
interaction score (4H1930-AA): 1.78
interaction score (4H2774-AA): -1.57
interaction score (4H_APH): -1.06
interaction score (4H3001-AA): -1.62
interaction score (4H249-AA): -1.82
Binder: DENAALKAKNAALEAEIAALKAEIAALKG [4H1930-AA]

interaction score (4H3121-AA): -1.32
interaction score (4H189-AA): -1.54
interaction score (4H3709-AA): -1.44
interaction score (4H391-AA): -1.36
interaction score (4H2248-AA): -1.32
interaction score (4H3417-AA): -1.93
interaction score (4H3102-AA): -1.1
interaction score (4H3591-AA): 2.15
interaction score (4H3920-AA): -0.296
interaction score (4H2742-AA): -1.48
interaction score (4H1391-AA): -0.77
interaction score (4H3446-AA): -1.64
interaction score (4H478-AA): -1.53
interaction score (4H3029-AA): -1.41
interaction score (4H3939-AA): -1.09
interaction score (4H971-AA): -1.37
interaction score (4H2713-AA): -1.47
interaction score (4H497-AA): -1.59
interaction score (4H3066-AA): -1.99
interaction score (4H1854-AA): -1.81
interaction score (4H2991-AA): -2.12
interaction score (4H146-AA): -1.65
interaction score (4H3666-AA): -1.8
interaction score (4H1809-AA): -0.868
interaction score (4H675-AA): -1.62
interaction score (4H2283-AA): -1.61
interaction score (4H428-AA): -1.77
interaction score (4H656-AA): -1.09
interaction score (4H2948-AA): -1.19
interaction score (4H3628-AA): 0.211
Binder: DENAALEAKIAALKAKIAALKAKNAALEG [4H1391-AA]

From article PMC10397247
